The target of assay [1] is collagen (collagen-coated microtiter wells and culture plates; collagen matrices). The experiment in a line: cell-based or functional assay.
Assay [2] has the same target. The experiment in a line: about 1 µg protein on collagen-coated microtiter plates, washes of rising stringency, immunodetection with DAB.

With “chimeric ECB-CEE+ Moloney Murine Leukemia Virus gp70 envelope protein with collagen binding domain, on retroviral vector particles (from UniProt P03385 52-469)”, the transduction efficiency of NIH 3T3 cells overlaid upon the virus-bound collagen in assay [1] was 20 to 40%. Take “purified, renatured SU-ECB-CEE+ chimeric envelope protein (His×6 tag, von Willebrand Factor derived collagen binding domain, mature SU region of MoMuLV env gp70, residues 34 to 474) (from UniProt P03385 52-474)”: in assay [2], the urea needed to release the collagen-bound protein stood at 3 M.

Source of the values: patent US20030118551A1.
